The text below walks through data of patent US20090257987A1, “Method of generating dopamine-secreting cells” (Ramot At Tel Aviv University Ltd., priority 2008, published 2009).

Holding throughout (assay type): cell-based
Experiment [1] concerns human MSCs. Description: Immunocytochemistry for neuronal markers Tuj1 and NeuN. How it is done: Induction of differentiation: The differentiation protocol was composed of 2 steps. In step 1, cells were transferred to serum-free medium (DMEM) supplemented with 2 mM glutamine, 100 μg/ml streptomycin, 100 units/ml penicillin, 12.5 units/ml nystatin (Biological Industries), N2 supplement (Invitrogen, New Haven, Conn.) and 20 ng/ml fibroblast growth factor 2 and epidermal growth factor (both from R&D Systems, Minneapolis, Minn.) for 48-72 hours. In step 2, the medium was changed to Basic induction medium containing Neurobasal, B27 (both from Invitrogen), in addition to 1 mM dibutyryl cyclic AMP (dbcAMP), 3-isobutyl-1-methyl-xanthine (IBMX), and 200 μM ascorbic acid (all from Sigma, St Louis, Mo.). […] Cells were photographed with a fluorescence Olympus IX70-[…] microscope with a fluorescent light source (excitation wavelength, 330-385 nm; barrier filter, 420 nm) and a U-MNU filter cube (Olympus, Center Valley, Pa.).

Experiment [2] deals with human MSCs. The experiment can be described thus: Intracellular FACS analysis of TH expression. To be noted: none of the untreated cells. How it is done:
Induction of differentiation: The differentiation protocol was composed of 2 steps. In step 1, cells were transferred to serum-free medium (DMEM) supplemented with 2 mM glutamine, 100 μg/ml streptomycin, 100 units/ml penicillin, 12.5 units/ml nystatin (Biological Industries), N2 supplement (Invitrogen, New Haven, Conn.) and 20 ng/ml fibroblast growth factor 2 and epidermal growth factor (both from R&D Systems, Minneapolis, Minn.) for 48-72 hours. In step 2, the medium was changed to Basic induction medium containing Neurobasal, B27 (both from Invitrogen), in addition to 1 mM dibutyryl cyclic AMP (dbcAMP), 3-isobutyl-1-methyl-xanthine (IBMX), and 200 μM ascorbic acid (all from Sigma, St Louis, Mo.). […]
Intracellular fluorescence-activated cell sorter (FACS) analysis: Cells were harvested from the tissue culture flasks, centrifuged, and resuspended in phosphate-buffered saline (PBS). […] The results were analyzed with CellQuest software. […]
(A flow cytometer gives signals particle by particle.)

For experiment [3], the system named is human MSCs. The experiment can be described thus: HPLC analysis of dopamine secretion. How it is done:
Induction of differentiation: The differentiation protocol was composed of 2 steps. In step 1, cells were transferred to serum-free medium (DMEM) supplemented with 2 mM glutamine, 100 μg/ml streptomycin, 100 units/ml penicillin, 12.5 units/ml nystatin (Biological Industries), N2 supplement (Invitrogen, New Haven, Conn.) and 20 ng/ml fibroblast growth factor 2 and epidermal growth factor (both from R&D Systems, Minneapolis, Minn.) for 48-72 hours. In step 2, the medium was changed to Basic induction medium containing Neurobasal, B27 (both from Invitrogen), in addition to 1 mM dibutyryl cyclic AMP (dbcAMP), 3-isobutyl-1-methyl-xanthine (IBMX), and 200 μM ascorbic acid (all from Sigma, St Louis, Mo.). The following factors were added to the Basic induction medium in different combinations: brain-derived neurotrophic factor (BDNF; 50 ng/ml), glial-derived neurotrophic factor (GDNF;10 ng/ml), neurturin (100 ng/ml), neurotrophin 3 (NT3; 50 ng/ml), and fibroblast growth factor 8 (FGF8; 100 ng/ml (all from Cytolab, Rehovot, Israel); transforming growth factor β3 (TGFβ3; 2 ng/ml), sonic hedgehog (Shh; 500 ng/ml, both from R&D); estrogen (0.1 μM, Sigma); and all-trans-retinoic acid (RA; 0.1 μM, Sigma). High performance liquid chromotography (HPLC): Reverse-phase HPLC coupled with an electrochemical detector (ECD) was used to measure dopamine levels. […]

B1: brain-derived neurotrophic factor (protein, UniProt P23560 19-247, looked up)
Neurotrophic factor BDNF …: APMKEANIRGQGGLAYPGVRTHGTLESVNGPKAGSRGLTSLADTFEHVIEELLDEDQKVRPNEENNKDADLYTSRVMLSSQVPLEPPLLFLLEEYKNYLDAANMSMRVRRHSDPARRGELSVCDSISEWVTAADKKTAVDMSGGTVTVLEKVPVSKGQLKQYFYETKCNPMGYTKEGCRGIDKRHWNSQCRTTQSYVRALTMDSKKRIGWRFIRIDTSCVCTLTIKRGR
notes: brain-derived neurotrophic factor (50 ng/ml) added to the Basic induction medium
B1: in the experiment with human MSCs [1], the NeuN staining result is given as “stained positive”. The “Tuj 1 expression” value in the experiment on human MSCs [1] (versus untreated MSCs) is listed as “higher levels”. The “induced cells expressing the TH protein at a detectable level” value with human MSCs [2] is listed as “More than 30%”. Moreover, the “dopamine secreted to the depolarization buffer (mean)” value with human MSCs [3] (56 mM KCL in HBSS for 30 minutes) was 1127.86 pg/ml of dopamine per 10^6 cells. In addition, in the experiment with human MSCs [3] (differentiation medium), the “dopamine secreted to the conditioned media (mean)” value was 673.69 pg/ml of dopamine per 10^6 cells.
